Test results as given in US20120065106.

T1: SUMO*-GFP (engineered SUMO 2F4, Smt3 R64T R71E, fused to GFP)
T1 chain: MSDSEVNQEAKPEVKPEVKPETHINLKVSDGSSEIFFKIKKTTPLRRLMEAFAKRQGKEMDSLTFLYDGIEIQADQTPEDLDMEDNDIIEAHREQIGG


How the values were obtained:
[1] = biological target: T1, SUMO*-GFP (engineered SUMO 2F4, Smt3 …)
[2] = biological target: SUMO mutant 1C1 (R64L), GFP fusion [SUMO: Q12306]
[3] = biological target: SMT3-GFP (wild-type SUMO-GFP fusion) [SUMO: Q12306]
[4] = biological target: SUMO mutant 1A3 (R64Q), GFP fusion [SUMO: Q12306]
[5] = biological target: SUMO mutant 2E4 (R64T; R71E), GFP fusion [SUMO: Q12306]
[6] = biological target: SUMO mutant 2E11 (R64F; R71E), GFP fusion [SUMO: Q12306]

| Protein | % Cleavage of SUMO* tag [1] [%] | in vitro cleavage, protease titration (SDS-PAGE) [1] | in vitro cleavage, protease titration (SDS-PAGE) [3] | other results |
| --- | --- | --- | --- | --- |
| ULP1 mutant 1.38 (residues 451-455: S T I I A) (protein) LVPELNEKDDDQVQKALASRENTQLMNRDNIEITVRDFKTLAPRRWLNSTIIAFFMKYIEKSTPNTVAFNSFFYTNLSERGYQGVRRWMKRKKTQIDKLDKIFTPINLNQSHWALGIIDLKKKTIGYVDSLSNGPNAMSFAILTDLQKYVMEESKHTIGEDFDLIHLDCPQQPNGYDCGIYVCMNTLYGSADAPLDFDYKDAIRMRRFIAHLILTDALK | 75 |  |  |  |
| ULP1 mutant 1.48 (residues 451-455: S T I I M) (protein) LVPELNEKDDDQVQKALASRENTQLMNRDNIEITVRDFKTLAPRRWLNSTIIMFFMKYIEKSTPNTVAFNSFFYTNLSERGYQGVRRWMKRKKTQIDKLDKIFTPINLNQSHWALGIIDLKKKTIGYVDSLSNGPNAMSFAILTDLQKYVMEESKHTIGEDFDLIHLDCPQQPNGYDCGIYVCMNTLYGSADAPLDFDYKDAIRMRRFIAHLILTDALK | 75 |  |  |  |
| ULP1 (wild-type SUMO protease 1) (protein) LVPELNEKDDDQVQKALASRENTQLMNRDNIEITVRDFKTLAPRRWLNDTIIEFFMKYIEKSTPNTVAFNSFFYTNLSERGYQGVRRWMKRKKTQIDKLDKIFTPINLNQSHWALGIIDLKKKTIGYVDSLSNGPNAMSFAILTDLQKYVMEESKHTIGEDFDLIHLDCPQQPNGYDCGIYVCMNTLYGSADAPLDFDYKDAIRMRRFIAHLILTDALK | 0 | ULP1 does not cleave SUMO* tag | ULP1 cleaves the SMT3 tag | % Cleavage with ULP1 [1]: 0%; in vitro cleavage reaction [1]: Neither protease cleaved SUMO*; in vitro cleavage, protease titration [1]: incubated with increasing amounts of Ulp1 up to 1000 fold excess of the enzyme concentration required to fully cleave SUMO and still no cleavage was detected; % Cleavage with ULP1 [2]: 10%; % Cleavage with ULP1 [3]: 100%; in vitro cleavage (SDS-PAGE and anti-Smt3 Western blot) [3]: wild-type SUMO (Smt3) is cleaved by ULP1 and SENP2 (SUMO protease 1 and 2) in vitro; % Cleavage with ULP1 [4]: 10%; % Cleavage with ULP1 [5]: 0%; % Cleavage with ULP1 [6]: 0% |
| SUMO* protease 1 (ULP1 mutant 2.2; D451S, T452G, E455S) (protein) MGLVPELNEKDDDQVQKALASRENTQLMNRDNIEITVRDFKTLAPRRWLNSGIISFFMKYIEKSTPNTVAFNSFFYTNLSERGYQGVRRWMKRKKTQIDKLDKIFTPINLNQSHWALGIIDLKKKTIGYVDSLSNGPNAMSFAILTDLQKYVMEESKHTIGEDFDLIHLDCPQQPNGYDCGIYVCMNTLYGSADAPLDFDYKDAIRMRRFIAHLILTDALKLEHHHHHH | 100 | SUMO* protease 1 cleaves the SUMO* tag | SUMO* protease 1 cleaves wild type SUMO, but less efficiently than SUMO* |  |
| ULP1 mutant 2.3 (residues 451-455: A M I I A) (protein) LVPELNEKDDDQVQKALASRENTQLMNRDNIEITVRDFKTLAPRRWLNAMIIAFFMKYIEKSTPNTVAFNSFFYTNLSERGYQGVRRWMKRKKTQIDKLDKIFTPINLNQSHWALGIIDLKKKTIGYVDSLSNGPNAMSFAILTDLQKYVMEESKHTIGEDFDLIHLDCPQQPNGYDCGIYVCMNTLYGSADAPLDFDYKDAIRMRRFIAHLILTDALK | 10 |  |  |  |
